Reference: patent publication US20260274955A1 (JANUX THERAPEUTICS, published 2026)

Tests used:
[1] = target: T1, anti-CD28 Fab (SEQ ID NOs: 202, 203); test: phage binding ELISA; biotinylated Fab on neutravidin plate;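 further: clonal phage supernatants added to Fab wells pretreated with CD28 antigen or with blocking buffer only, bound phage read out via HRP-linked anti-M13 antibody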
T1 construct: biotinylated and captured on neutravidin coated plates in the phage ELISA
Description: (§1) Clonal phage were harvested as crude supernatants and screened via standard ELISAs. […] Prior to the addition of clonal phage, wells were incubated with blocking buffer and CD28 antigen or blocking buffer alone. Without washing or aspirating, clonal phage supernatants were then added to the wells and incubated for a short time. Wells were then washed followed by detection of bound phage using a horse radish conjugated anti-M13 antibody.

[2] = target: T1, anti-CD28 Fab (SEQ ID NOs: 202, 203); test: phage binding ELISA; Fab wells pre-incubated with CD28 antigen (competitor);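 further: clonal phage supernatants added to wells preincubated with CD28 antigen in blocking buffer versus blocking buffer alone, washed, bound phage read by HRP-conjugated anti-M13 antibody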
Description: as §1

T1 sequence (VH, as listed by the source, chain 1 of 2): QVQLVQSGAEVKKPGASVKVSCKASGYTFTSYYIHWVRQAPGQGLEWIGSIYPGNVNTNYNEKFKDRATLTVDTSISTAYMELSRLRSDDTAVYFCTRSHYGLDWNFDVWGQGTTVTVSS
T1 sequence (VL, as listed by the source, chain 2 of 2): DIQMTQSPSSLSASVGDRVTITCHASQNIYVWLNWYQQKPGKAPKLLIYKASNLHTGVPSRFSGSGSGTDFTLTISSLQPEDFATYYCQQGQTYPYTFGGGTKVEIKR

Binder | Anti-CD28 Fab (SEQ ID NOs: 202, 203) signal [1] | Anti-CD28 Fab signal in the presence of CD28 [2]
YCDGHLAEYMPKCL [Phage-320] | 1.89 | 0.07
YCDGHLAEYMVKCL [Phage-375] | 1.79 | 0.08
YCEGHSWEYIGKCL [Phage-332] | 1.87 | 0.07
YCEGHSPLYMSKCL [Phage-331] | 1.87 | 0.09
YCEGHSYEYMWKCL [Phage-328] | 1.88 | 0.08
YCEGHKPEYMQKCL [Phage-447] | 1.69 | 0.06
YCEGHLPEYMRKCL [Phage-349] | 1.83 | 0.06
YCEGHLPEYMMKCL [Phage-329] | 1.88 | 0.27
YCDGHLPEYMRKCL [Phage-330] | 1.88 | 0.08
YCEGHLPAYMQKCL [Phage-377] | 1.78 | 0.07
YCEGHSPEYMRKCL [Phage-385] | 1.77 | 0.08
YCDGHLAMYMDKCL [Phage-337] | 1.86 | 0.08
YCAGHLPEYLSKCL [Phage-345] | 1.84 | 0.07
YCAGHSSEYMWKCL [Phage-340] | 1.85 | 0.07
YCEGHLSEYMSKCL [Phage-324] | 1.88 | 0.09
YCEGHLQIYMSKCL [Phage-346] | 1.84 | 0.14
YCEGHLPIYMSKCL [Phage-388] | 1.76 | 0.09
YCDGHSWEYIQKCL [Phage-326] | 1.88 | 0.07
YCDGHTGVYFYKCL [Phage-334] | 1.87 | 0.08

Binder | Anti-CD28 Fab (SEQ ID NOs: 202, 203) signal [1] | Anti-CD28 Fab signal in the presence of CD28 [2]
YCDGHIDEYLQKCL [Phage-322] | 1.88 | 0.06
YCEGHSLEYMAKCL [Phage-327] | 1.88 | 0.08
YCEGHLQEYMEKCL [Phage-317] | 1.89 | 0.1
YCVGHLQEYMEKCL [Phage-389] | 1.76 | 0.06
YCEGHVAEYMLKCL [Phage-323] | 1.88 | 0.05
YCEGHSAEYMQKCL [Phage-443] | 1.7 | 0.29
YCEGHSQEYMQKCL [Phage-344] | 1.84 | 0.05
YCDGHSWAYMWKCL [Phage-341] | 1.85 | 0.13
YCDGHSLQYLGKCL [Phage-343] | 1.84 | 0.09
YCEGHTSEYMNKCL [Phage-335] | 1.87 | 0.06
YCDGHSALYMSKCL [Phage-333] | 1.87 | 0.08
YCEGHRPEYMAKCL [Phage-348] | 1.83 | 0.07
YCEGHMSEYMAKCL [Phage-325] | 1.88 | 0.11
YCEGHIPEYMAKCL [Phage-318] | 1.89 | 0.06
YCEGHRSEYMAKCL [Phage-336] | 1.86 | 0.06
YCEGHAAEYMSKCL [Phage-339] | 1.86 | 0.07
YCDGHMPEYLAKCL [Phage-338] | 1.86 | 0.07
YCDGHSPEYMPKCL [Phage-319] | 1.89 | 0.08
YCDGHSAAYIMKCL [Phage-342] | 1.84 | 0.09
